Publication PMC11969024, “Development of chemokine network inhibitors using combinatorial saturation mutagenesis” (Communications Biology, 2025)

B1: peptide HD2 (from tick evasin EVA4) / CXCL13 (biotinylated, synthetic) (parent)
chain 1: EEDDYTAYAPLTCYFT
chain 2: VLEVYYTSLRCRCVQESSVFIPRRFIDRIQILPRGNGCPRKEIIVWKKNKSIVCVDPQAEWIQRMMEVLRKRSSSTLPVPVFKRKIP
B2: peptide HD2 (from tick evasin EVA4) / CCL19 (biotinylated, synthetic) (parent)
chain 1: EEDDYTAYAPLTCYFT
chain 2: GTNDAEDCCLSVTQKPIPGYIVRNFHYLLIKDGCRVPAVVFTTLRGRQLCAPPDQPWVERIIQRLQRTSAKMKRRSS
B3: peptide HD2 (from tick evasin EVA4) / CCL17 (biotinylated, synthetic) (parent)
chain 1: EEDDYTAYAPLTCYFT
chain 2: ARGTNVGRECCLEYFKGAIPLRKLKTWYQTSEDCSRDAIVFVTVQGRAICSDPNNKRVKNAVKYLQSLERS

Variants of: B1
Conditions: with CXCL13 (biotinylated, synthetic); scale: log2

Variant	enrichment
chain 1 D4K	-5.65
chain 1 D4R	-5.86
chain 1 D4C	-8.01
chain 1 D4T	-6.65
chain 1 L11Q	-5.03
chain 1 L11G	-9.02
chain 1 L11D	-7.86
chain 1 L11P	-6.87
chain 1 L11E	-6.94
chain 1 L11K	-5.76
chain 1 F15D	-7.37
chain 1 F15N	-5.51
chain 1 F15H	-6.08
chain 1 F15K	-5.78
chain 1 A7C	-8.62
chain 1 E2R	-5.9
chain 1 E2C	-8.79
chain 1 E2K	-3.92
chain 1 C13R	-9.32
chain 1 C13H	-7.42

Variant	enrichment
chain 1 C13M	-8.29
chain 1 C13G	-9.21
chain 1 C13K	-7.9
chain 1 C13D	-7.93
chain 1 C13W	-8.42
chain 1 C13F	-7.4
chain 1 E1C	-8.53
chain 1 A9C	-8.86
chain 1 A9D	-7
chain 1 A9K	-5.4
chain 1 D3R	-6.23
chain 1 D3K	-4.13
chain 1 D3C	-8.67
chain 1 D3H	-5.74
chain 1 P10R	-7.85
chain 1 P10C	-8.5
chain 1 P10Q	-5.17
chain 1 P10K	-5.74
chain 1 P10F	-8.19
chain 1 P10I	-7.21

Variants of: B2
Conditions: with CCL19 (biotinylated, synthetic); scale: log2

Variant	enrichment
chain 1 A7C	-8.81
chain 1 D4G	-5.19
chain 1 D4P	-6.04
chain 1 D4E	-4.92
chain 1 D4A	-7.05
chain 1 D4K	-5.85
chain 1 D4R	-6.06
chain 1 D4N	-6.94
chain 1 D4T	-6.85
chain 1 D4H	-6.74
chain 1 D4C	-8.21
chain 1 Y14Q	-7.02
chain 1 Y14D	-6.5
chain 1 Y14E	-7.73
chain 1 Y14C	-7.29
chain 1 Y14T	-7.91
chain 1 Y14S	-8.64
chain 1 Y14N	-5.87
chain 1 D3K	-4.33
chain 1 D3C	-8.87
chain 1 D3Q	-3.96
chain 1 D3M	-6.81
chain 1 D3A	-6
chain 1 D3T	-6.58

Variant	enrichment
chain 1 D3R	-6.43
chain 1 D3I	-8.83
chain 1 D3H	-5.94
chain 1 L11D	-8.06
chain 1 L11G	-9.22
chain 1 L11E	-7.14
chain 1 L11N	-7.42
chain 1 A9K	-5.6
chain 1 A9H	-7.18
chain 1 A9D	-7.2
chain 1 A9Q	-6.19
chain 1 A9G	-7.67
chain 1 Y5R	-6.02
chain 1 Y5V	-8.24
chain 1 Y5P	-5.7
chain 1 Y5K	-4.57
chain 1 Y5Q	-4.33
chain 1 Y5A	-6.04
chain 1 Y5G	-6.08
chain 1 Y5E	-2.46
chain 1 T16P	-6.44
chain 1 Y8D	-6.51
chain 1 Y8A	-7.75
chain 1 Y8G	-7.68

Variant	enrichment
chain 1 Y8P	-6.84
chain 1 Y8I	-8.35
chain 1 Y8T	-7.46
chain 1 Y8E	-5.16
chain 1 Y8C	-8.65
chain 1 Y8R	-7.16
chain 1 Y8K	-5.04
chain 1 Y8N	-7.1
chain 1 Y8Q	-5.33
chain 1 F15N	-5.7
chain 1 F15I	-5.23
chain 1 T12D	-7.63
chain 1 T12Q	-6.6
chain 1 T12G	-9.27
chain 1 E1Q	-3.57
chain 1 E1C	-8.72
chain 1 E2P	-6.02
chain 1 E2H	-6.61
chain 1 E2K	-4.12
chain 1 E2Q	-3.87
chain 1 P10E	-6.87
chain 1 P10H	-6.93
chain 1 P10C	-8.69
chain 1 P10R	-8.05

Variant	enrichment
chain 1 P10K	-5.94
chain 1 P10I	-7.41
chain 1 P10S	-8.17
chain 1 P10A	-7.68
chain 1 P10D	-7.38
chain 1 P10N	-6.99
chain 1 P10Q	-5.36
chain 1 C13Y	-7.72
chain 1 C13Q	-8.35
chain 1 C13F	-7.6
chain 1 C13R	-9.52
chain 1 C13G	-9.4
chain 1 C13E	-8.9
chain 1 C13M	-8.49
chain 1 C13W	-8.62
chain 1 C13I	-7.15
chain 1 C13H	-7.62
chain 1 C13K	-8.09
chain 1 C13V	-10.3
chain 1 C13T	-8.2
chain 1 C13A	-9.6

Variants of: B3
Conditions: with CCL17 (biotinylated, synthetic); scale: log2

Variant	enrichment
chain 1 P10H	-8.06
chain 1 P10C	-9.82
chain 1 P10R	-9.18
chain 1 P10K	-7.07
chain 1 P10N	-8.12
chain 1 P10V	-10.5
chain 1 P10S	-9.3
chain 1 P10I	-8.54
chain 1 P10M	-8.6
chain 1 Y8E	-6.29
chain 1 Y8M	-8.59
chain 1 Y8K	-6.17
chain 1 Y8R	-8.29
chain 1 Y8N	-8.23
chain 1 Y8I	-9.49
chain 1 Y8G	-8.81
chain 1 Y8D	-7.65

Variant	enrichment
chain 1 Y8A	-8.88
chain 1 Y8P	-7.97
chain 1 Y8Q	-6.46
chain 1 Y8T	-8.59
chain 1 Y5K	-5.7
chain 1 Y5R	-7.15
chain 1 Y5E	-3.59
chain 1 Y5N	-7.81
chain 1 Y5T	-7.77
chain 1 Y5Q	-5.46
chain 1 E1C	-9.85
chain 1 Y14N	-7
chain 1 Y14E	-8.87
chain 1 Y14R	-10.2
chain 1 Y14D	-7.63
chain 1 D4C	-9.34
chain 1 T6C	-11.2
